From US20220298218A1 (ANTAG THERAPEUTICS, published 2022)
*1 amine or outer side, *2 acyl side, *3 side chain or, on linkers, in order; H or OH if unused. Where no end group is shown, it is not given here. Side-chain parts run from the residue outwards. [ ]: non-standard residue; d: D form. The star is where a group is joined. C18 diacid = O=C(O)CCCCCCCCCCCCCCCCC(=O)*; C16 diacid = O=C(O)CCCCCCCCCCCCCCC(=O)*; γGlu = O=C(O)[C@H](CCC(=O)[*:2])N[*:1]; Glutaryl = O=C(CCCC(=O)[*:2])[*:1]; Nle = CCCC[C@H](N)C(=O)O; AEEA = NCCOCCOCC(=O)O; Aib = CC(C)(N)C(=O)O

T1: human GIP receptor (human, UniProt P48546 22-466)
T1 sequence (looked up): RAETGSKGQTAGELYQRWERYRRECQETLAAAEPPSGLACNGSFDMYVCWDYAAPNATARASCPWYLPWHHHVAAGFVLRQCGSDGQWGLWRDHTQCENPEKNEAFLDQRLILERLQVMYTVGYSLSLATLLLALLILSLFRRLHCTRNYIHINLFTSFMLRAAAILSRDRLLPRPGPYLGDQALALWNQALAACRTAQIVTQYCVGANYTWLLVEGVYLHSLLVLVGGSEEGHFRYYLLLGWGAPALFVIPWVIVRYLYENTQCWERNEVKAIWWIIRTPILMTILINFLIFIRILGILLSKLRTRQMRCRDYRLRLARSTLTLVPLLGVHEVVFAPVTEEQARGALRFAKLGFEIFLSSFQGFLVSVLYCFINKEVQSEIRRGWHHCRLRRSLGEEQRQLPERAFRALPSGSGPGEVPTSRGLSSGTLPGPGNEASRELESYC

B1: AT676 (peptide)
peptide: [βGlu]GTFISDYSIAMDKIK(C16 diacid)QQDFVNWLLAQKPSSGAPPPS-OH
B2: AT674 (peptide)
peptide: EGTFISEYSI[Aib][Nle]EKIK(C16 diacid)QQEFVEWLLAQKPSSGAPPPS-OH
modifications: N-terminus assumed
SMILES: CCCC[C@H](NC(=O)C(C)(C)NC(=O)[C@@H](NC(=O)[C@H](CO)NC(=O)[C@H](Cc1ccc(O)cc1)NC(=O)[C@H](CCC(=O)O)NC(=O)[C@H](CO)NC(=O)[C@@H](NC(=O)[C@H](Cc1ccccc1)NC(=O)[C@@H](NC(=O)CNC(=O)[C@@H](N)CCC(=O)O)[C@@H](C)O)[C@@H](C)CC)[C@@H](C)CC)C(=O)N[C@@H](CCC(=O)O)C(=O)N[C@@H](CCCCN)C(=O)N[C@H](C(=O)N[C@@H](CCCCNC(=O)CCCCCCCCCCCCCCC(=O)O)C(=O)N[C@@H](CCC(N)=O)C(=O)N[C@@H](CCC(N)=O)C(=O)N[C@@H](CCC(=O)O)C(=O)N[C@@H](Cc1ccccc1)C(=O)N[C@H](C(=O)N[C@@H](CCC(=O)O)C(=O)N[C@@H](Cc1c[nH]c2ccccc12)C(=O)N[C@@H](CC(C)C)C(=O)N[C@@H](CC(C)C)C(=O)N[C@@H](C)C(=O)N[C@@H](CCC(N)=O)C(=O)N[C@@H](CCCCN)C(=O)N1CCC[C@H]1C(=O)N[C@@H](CO)C(=O)N[C@@H](CO)C(=O)NCC(=O)N[C@@H](C)C(=O)N1CCC[C@H]1C(=O)N1CCC[C@H]1C(=O)N1CCC[C@H]1C(=O)N[C@@H](CO)C(=O)O)C(C)C)[C@@H](C)CC
B3: AT677 (peptide)
peptide: Glutaryl-GTFISDYSIAMDKIK(C16 diacid)QQDFVNWLLAQKPSSGAPPPS-OH
SMILES: CC[C@H](C)[C@H](NC(=O)[C@H](CO)NC(=O)[C@H](Cc1ccc(O)cc1)NC(=O)[C@H](CC(=O)O)NC(=O)[C@H](CO)NC(=O)[C@@H](NC(=O)[C@H](Cc1ccccc1)NC(=O)[C@@H](NC(=O)CNC(=O)CCCC(=O)O)[C@@H](C)O)[C@@H](C)CC)C(=O)N[C@@H](C)C(=O)N[C@@H](CCSC)C(=O)N[C@@H](CC(=O)O)C(=O)N[C@@H](CCCCN)C(=O)N[C@H](C(=O)N[C@@H](CCCCNC(=O)CCCCCCCCCCCCCCC(=O)O)C(=O)N[C@@H](CCC(N)=O)C(=O)N[C@@H](CCC(N)=O)C(=O)N[C@@H](CC(=O)O)C(=O)N[C@@H](Cc1ccccc1)C(=O)N[C@H](C(=O)N[C@@H](CC(N)=O)C(=O)N[C@@H](Cc1c[nH]c2ccccc12)C(=O)N[C@@H](CC(C)C)C(=O)N[C@@H](CC(C)C)C(=O)N[C@@H](C)C(=O)N[C@@H](CCC(N)=O)C(=O)N[C@@H](CCCCN)C(=O)N1CCC[C@H]1C(=O)N[C@@H](CO)C(=O)N[C@@H](CO)C(=O)NCC(=O)N[C@@H](C)C(=O)N1CCC[C@H]1C(=O)N1CCC[C@H]1C(=O)N1CCC[C@H]1C(=O)N[C@@H](CO)C(=O)O)C(C)C)[C@@H](C)CC
B4: AT680 (peptide)
peptide: EGTFISDYSIAMDKIK([AEEA-AEEA-γGlu-C18 diacid])QQDFVNWLLAQKPSSGAPPPS-OH
modifications: N-terminus assumed
SMILES: CC[C@H](C)[C@H](NC(=O)[C@H](CO)NC(=O)[C@H](Cc1ccc(O)cc1)NC(=O)[C@H](CC(=O)O)NC(=O)[C@H](CO)NC(=O)[C@@H](NC(=O)[C@H](Cc1ccccc1)NC(=O)[C@@H](NC(=O)CNC(=O)[C@@H](N)CCC(=O)O)[C@@H](C)O)[C@@H](C)CC)C(=O)N[C@@H](C)C(=O)N[C@@H](CCSC)C(=O)N[C@@H](CC(=O)O)C(=O)N[C@@H](CCCCN)C(=O)N[C@H](C(=O)N[C@@H](CCCCNC(=O)COCCOCCNC(=O)COCCOCCNC(=O)CC[C@H](NC(=O)CCCCCCCCCCCCCCCCC(=O)O)C(=O)O)C(=O)N[C@@H](CCC(N)=O)C(=O)N[C@@H](CCC(N)=O)C(=O)N[C@@H](CC(=O)O)C(=O)N[C@@H](Cc1ccccc1)C(=O)N[C@H](C(=O)N[C@@H](CC(N)=O)C(=O)N[C@@H](Cc1c[nH]c2ccccc12)C(=O)N[C@@H](CC(C)C)C(=O)N[C@@H](CC(C)C)C(=O)N[C@@H](C)C(=O)N[C@@H](CCC(N)=O)C(=O)N[C@@H](CCCCN)C(=O)N1CCC[C@H]1C(=O)N[C@@H](CO)C(=O)N[C@@H](CO)C(=O)NCC(=O)N[C@@H](C)C(=O)N1CCC[C@H]1C(=O)N1CCC[C@H]1C(=O)N1CCC[C@H]1C(=O)N[C@@H](CO)C(=O)O)C(C)C)[C@@H](C)CC
B5: AT670 (peptide)
peptide: EGTFISDYSIAKDKIK(C16 diacid)QQDFVEWLLAQKPSSGAPPPS-OH
modifications: N-terminus assumed
SMILES: CC[C@H](C)[C@H](NC(=O)[C@H](CO)NC(=O)[C@H](Cc1ccc(O)cc1)NC(=O)[C@H](CC(=O)O)NC(=O)[C@H](CO)NC(=O)[C@@H](NC(=O)[C@H](Cc1ccccc1)NC(=O)[C@@H](NC(=O)CNC(=O)[C@@H](N)CCC(=O)O)[C@@H](C)O)[C@@H](C)CC)C(=O)N[C@@H](C)C(=O)N[C@@H](CCCCN)C(=O)N[C@@H](CC(=O)O)C(=O)N[C@@H](CCCCN)C(=O)N[C@H](C(=O)N[C@@H](CCCCNC(=O)CCCCCCCCCCCCCCC(=O)O)C(=O)N[C@@H](CCC(N)=O)C(=O)N[C@@H](CCC(N)=O)C(=O)N[C@@H](CC(=O)O)C(=O)N[C@@H](Cc1ccccc1)C(=O)N[C@H](C(=O)N[C@@H](CCC(=O)O)C(=O)N[C@@H](Cc1c[nH]c2ccccc12)C(=O)N[C@@H](CC(C)C)C(=O)N[C@@H](CC(C)C)C(=O)N[C@@H](C)C(=O)N[C@@H](CCC(N)=O)C(=O)N[C@@H](CCCCN)C(=O)N1CCC[C@H]1C(=O)N[C@@H](CO)C(=O)N[C@@H](CO)C(=O)NCC(=O)N[C@@H](C)C(=O)N1CCC[C@H]1C(=O)N1CCC[C@H]1C(=O)N1CCC[C@H]1C(=O)N[C@@H](CO)C(=O)O)C(C)C)[C@@H](C)CC
B6: AT673 (peptide)
peptide: EGTFISEYSI[Aib]LEKIK(C16 diacid)QQEFVEWLLAQKPSSGAPPPS-OH
modifications: N-terminus assumed
SMILES: CC[C@H](C)[C@H](NC(=O)[C@H](CCCCN)NC(=O)[C@H](CCC(=O)O)NC(=O)[C@H](CC(C)C)NC(=O)C(C)(C)NC(=O)[C@@H](NC(=O)[C@H](CO)NC(=O)[C@H](Cc1ccc(O)cc1)NC(=O)[C@H](CCC(=O)O)NC(=O)[C@H](CO)NC(=O)[C@@H](NC(=O)[C@H](Cc1ccccc1)NC(=O)[C@@H](NC(=O)CNC(=O)[C@@H](N)CCC(=O)O)[C@@H](C)O)[C@@H](C)CC)[C@@H](C)CC)C(=O)N[C@@H](CCCCNC(=O)CCCCCCCCCCCCCCC(=O)O)C(=O)N[C@@H](CCC(N)=O)C(=O)N[C@@H](CCC(N)=O)C(=O)N[C@@H](CCC(=O)O)C(=O)N[C@@H](Cc1ccccc1)C(=O)N[C@H](C(=O)N[C@@H](CCC(=O)O)C(=O)N[C@@H](Cc1c[nH]c2ccccc12)C(=O)N[C@@H](CC(C)C)C(=O)N[C@@H](CC(C)C)C(=O)N[C@@H](C)C(=O)N[C@@H](CCC(N)=O)C(=O)N[C@@H](CCCCN)C(=O)N1CCC[C@H]1C(=O)N[C@@H](CO)C(=O)N[C@@H](CO)C(=O)NCC(=O)N[C@@H](C)C(=O)N1CCC[C@H]1C(=O)N1CCC[C@H]1C(=O)N1CCC[C@H]1C(=O)N[C@@H](CO)C(=O)O)C(C)C
B7: AT675 (peptide)
peptide: [γGlu]GTFISDYSIAMDKIK(C16 diacid)QQDFVNWLLAQKPSSGAPPPS-OH
modifications: N-terminus assumed
SMILES: CC[C@H](C)[C@H](NC(=O)[C@H](CO)NC(=O)[C@H](Cc1ccc(O)cc1)NC(=O)[C@H](CC(=O)O)NC(=O)[C@H](CO)NC(=O)[C@@H](NC(=O)[C@H](Cc1ccccc1)NC(=O)[C@@H](NC(=O)CNC(=O)CC[C@H](N)C(=O)O)[C@@H](C)O)[C@@H](C)CC)C(=O)N[C@@H](C)C(=O)N[C@@H](CCSC)C(=O)N[C@@H](CC(=O)O)C(=O)N[C@@H](CCCCN)C(=O)N[C@H](C(=O)N[C@@H](CCCCNC(=O)CCCCCCCCCCCCCCC(=O)O)C(=O)N[C@@H](CCC(N)=O)C(=O)N[C@@H](CCC(N)=O)C(=O)N[C@@H](CC(=O)O)C(=O)N[C@@H](Cc1ccccc1)C(=O)N[C@H](C(=O)N[C@@H](CC(N)=O)C(=O)N[C@@H](Cc1c[nH]c2ccccc12)C(=O)N[C@@H](CC(C)C)C(=O)N[C@@H](CC(C)C)C(=O)N[C@@H](C)C(=O)N[C@@H](CCC(N)=O)C(=O)N[C@@H](CCCCN)C(=O)N1CCC[C@H]1C(=O)N[C@@H](CO)C(=O)N[C@@H](CO)C(=O)NCC(=O)N[C@@H](C)C(=O)N1CCC[C@H]1C(=O)N1CCC[C@H]1C(=O)N1CCC[C@H]1C(=O)N[C@@H](CO)C(=O)O)C(C)C)[C@@H](C)CC

What follows are binders tested against T1, human GIP receptor (assay: cell-based or functional assay).

In order of falling “cAMP agonism % Emax” value:
1. B7  3%
2. B1  0%
3. B2  0%
4. B3  0%
5. B4  0%
6. B5  0%
7. B6  0%

In order of rising “cAMP antagonism” value:
1. B6  0.136 nM
2. B2  0.447 nM
3. B3  0.447 nM
4. B1  2.33 nM
5. B4  4.3 nM
6. B7  4.3 nM
7. B5  10 nM

In order of falling “cAMP antagonism % inhib” value:
1. B6  94%
2. B2  93%
3. B3  93%
4. B4  93%
5. B5  92%
6. B1  91%
7. B7  90%

In order of rising “cAMP antagonism pIC50” value:
1. B5  8
2. B4  8.4
3. B7  8.4
4. B1  8.6
5. B2  9.4
6. B3  9.4
7. B6  9.9
